Reference: US20050048527

Assays:
[1] = target: CLEAVASE A/G nuclease (Thermus aquaticus) (UniProt P19821); experiment: cleavage_in_vitro; settings: probe cleaved in 30 min
[2] = target: DNAPTth (Thermus thermophilus) (UniProt P52028); experiment: cleavage_in_vitro; settings: probe cleaved in 30 min
[3] = target: Pfu + M4 FEN1 (loop swap chimera) (UniProt O93634); experiment: cleavage_in_vitro; settings: rate vs Pfu FEN1
[4] = target: MAM FEN1 (arch swap chimera) (Methanococcus jannaschii / Archaeoglobus fulgidus?) (UniProt Q58839); experiment: cleavage_in_vitro; settings: rate vs Pfu FEN1
[5] = target: PAP FEN1 (arch swap chimera) (Pyrococcus furiosus / Archaeoglobus fulgidus?) (UniProt O93634); experiment: cleavage_in_vitro; settings: rate vs Pfu FEN1
[6] = target: MPM FEN1 (arch swap chimera) (Methanococcus jannaschii / Pyrococcus furiosus?) (UniProt Q58839); experiment: cleavage_in_vitro; settings: rate vs Pfu FEN1
[7] = target: Mja + P16 FEN1 (loop swap chimera) (Methanococcus jannaschii / Pyrococcus furiosus?) (UniProt Q58839); experiment: cleavage_in_vitro; settings: rate vs Pfu FEN1
[8] = target: PMP FEN1 (arch swap chimera) (UniProt O93634); experiment: cleavage_in_vitro; settings: rate vs Pfu FEN1
[9] = target: T1, Pfu FEN1 (Pyrococcus furiosus) (UniProt O93634); experiment: cleavage_in_vitro; settings: turnover
T1 sequence: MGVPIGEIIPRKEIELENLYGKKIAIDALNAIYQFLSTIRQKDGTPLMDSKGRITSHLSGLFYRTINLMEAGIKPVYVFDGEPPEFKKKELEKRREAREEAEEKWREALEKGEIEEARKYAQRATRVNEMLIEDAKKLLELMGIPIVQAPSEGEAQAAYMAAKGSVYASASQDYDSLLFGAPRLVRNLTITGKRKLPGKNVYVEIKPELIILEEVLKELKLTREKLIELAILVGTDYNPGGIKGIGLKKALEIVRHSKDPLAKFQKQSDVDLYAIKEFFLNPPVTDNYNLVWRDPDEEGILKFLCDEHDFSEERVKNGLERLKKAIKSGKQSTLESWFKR

[10] = target: T2, Mja FEN1 (Methanococcus jannaschii) (UniProt Q58839); experiment: cleavage_in_vitro; settings: turnover
T2 sequence: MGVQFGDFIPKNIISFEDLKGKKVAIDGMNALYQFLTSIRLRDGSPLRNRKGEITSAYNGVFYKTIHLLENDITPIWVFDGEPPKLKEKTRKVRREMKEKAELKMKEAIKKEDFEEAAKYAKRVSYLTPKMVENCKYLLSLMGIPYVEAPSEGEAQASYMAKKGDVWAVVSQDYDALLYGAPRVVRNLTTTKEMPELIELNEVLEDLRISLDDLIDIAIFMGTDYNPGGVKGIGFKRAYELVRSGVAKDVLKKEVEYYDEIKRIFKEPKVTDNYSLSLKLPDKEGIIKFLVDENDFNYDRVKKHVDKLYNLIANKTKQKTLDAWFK

[11] = test system: Thermus aquaticus DNA polymerase
[12] = test system: CLEAVASE BN/thrombin nuclease
CLEAVASE BN/thrombin nuclease, sequence (chain, as listed by the source): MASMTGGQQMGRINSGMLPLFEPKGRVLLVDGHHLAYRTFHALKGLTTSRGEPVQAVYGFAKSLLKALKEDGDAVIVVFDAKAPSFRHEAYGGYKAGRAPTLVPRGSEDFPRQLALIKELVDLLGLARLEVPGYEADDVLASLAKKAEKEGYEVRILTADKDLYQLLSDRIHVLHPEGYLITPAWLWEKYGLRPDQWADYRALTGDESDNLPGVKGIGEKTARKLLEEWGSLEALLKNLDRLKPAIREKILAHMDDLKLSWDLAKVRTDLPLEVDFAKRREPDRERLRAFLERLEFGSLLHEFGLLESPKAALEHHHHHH

Thermus aquaticus DNA polymerase, sequence (chain, as listed by the source): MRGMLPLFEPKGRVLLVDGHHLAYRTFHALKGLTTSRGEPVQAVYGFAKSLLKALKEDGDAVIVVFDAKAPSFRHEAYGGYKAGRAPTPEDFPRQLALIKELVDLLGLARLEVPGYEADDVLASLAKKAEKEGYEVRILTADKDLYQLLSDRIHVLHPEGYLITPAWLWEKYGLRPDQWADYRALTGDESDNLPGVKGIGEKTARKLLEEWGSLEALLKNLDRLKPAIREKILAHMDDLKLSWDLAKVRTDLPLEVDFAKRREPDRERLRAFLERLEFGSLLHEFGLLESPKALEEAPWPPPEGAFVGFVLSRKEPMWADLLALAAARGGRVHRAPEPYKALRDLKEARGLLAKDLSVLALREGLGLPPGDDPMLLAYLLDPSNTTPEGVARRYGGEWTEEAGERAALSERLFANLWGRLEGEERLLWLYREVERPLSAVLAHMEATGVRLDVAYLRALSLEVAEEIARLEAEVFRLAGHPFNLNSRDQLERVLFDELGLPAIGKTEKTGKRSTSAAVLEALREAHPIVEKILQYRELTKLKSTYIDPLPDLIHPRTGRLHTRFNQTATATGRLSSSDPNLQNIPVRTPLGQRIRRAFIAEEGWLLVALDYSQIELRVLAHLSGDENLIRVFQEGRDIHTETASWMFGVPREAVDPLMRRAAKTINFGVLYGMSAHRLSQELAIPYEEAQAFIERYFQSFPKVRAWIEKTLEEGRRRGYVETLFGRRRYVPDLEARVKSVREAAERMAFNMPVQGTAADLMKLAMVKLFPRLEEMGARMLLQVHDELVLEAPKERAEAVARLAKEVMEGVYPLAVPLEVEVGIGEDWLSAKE
CLEAVASE BN nuclease, sequence (chain, as listed by the source): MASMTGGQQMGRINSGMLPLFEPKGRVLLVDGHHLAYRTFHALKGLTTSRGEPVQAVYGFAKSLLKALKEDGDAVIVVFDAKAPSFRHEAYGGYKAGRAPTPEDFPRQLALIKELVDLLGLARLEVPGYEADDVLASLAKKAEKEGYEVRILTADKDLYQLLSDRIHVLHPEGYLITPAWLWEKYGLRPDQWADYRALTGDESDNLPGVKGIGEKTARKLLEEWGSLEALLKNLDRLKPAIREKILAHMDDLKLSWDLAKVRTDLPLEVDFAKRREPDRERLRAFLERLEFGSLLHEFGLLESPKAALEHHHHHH
DNAPTth (Thermus thermophilus), sequence (P52028 whole entry): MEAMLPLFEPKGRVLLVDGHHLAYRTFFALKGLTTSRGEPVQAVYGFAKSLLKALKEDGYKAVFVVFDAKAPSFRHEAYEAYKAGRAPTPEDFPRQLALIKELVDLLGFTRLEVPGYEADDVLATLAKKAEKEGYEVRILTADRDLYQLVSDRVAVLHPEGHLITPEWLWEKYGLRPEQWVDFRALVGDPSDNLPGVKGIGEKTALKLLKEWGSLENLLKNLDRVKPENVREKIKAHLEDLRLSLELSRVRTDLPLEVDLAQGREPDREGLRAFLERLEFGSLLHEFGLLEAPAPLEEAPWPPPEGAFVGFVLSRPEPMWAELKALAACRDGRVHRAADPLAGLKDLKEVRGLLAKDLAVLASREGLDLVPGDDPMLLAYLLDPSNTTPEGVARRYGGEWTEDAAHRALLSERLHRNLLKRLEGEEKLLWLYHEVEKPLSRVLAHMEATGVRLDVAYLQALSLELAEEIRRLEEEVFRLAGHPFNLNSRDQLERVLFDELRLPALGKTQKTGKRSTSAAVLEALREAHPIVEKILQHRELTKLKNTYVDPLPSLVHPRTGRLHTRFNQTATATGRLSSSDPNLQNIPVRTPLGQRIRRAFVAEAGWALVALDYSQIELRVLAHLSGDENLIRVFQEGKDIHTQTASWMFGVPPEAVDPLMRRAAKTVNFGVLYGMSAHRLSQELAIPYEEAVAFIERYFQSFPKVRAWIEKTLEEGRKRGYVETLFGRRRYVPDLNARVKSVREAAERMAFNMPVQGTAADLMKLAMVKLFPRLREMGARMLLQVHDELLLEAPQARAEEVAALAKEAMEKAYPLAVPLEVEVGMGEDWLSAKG

Question: For “CCGGTCGTCCTGGCAATXCC / GTTTATCCAAGAAAGGACCCGGTC [HCV RNA target/probe/INVADER (DNA oligos listed)]”, which activity [1] is on record?
Answer: 32%

Question: What about the activity [2] of the same substance?
Answer: 70%

Question: With “TTTTCAACTGCTTAGAGAATCTAAGCAGTTGGTGCGCCTCGTTAA / AACGAGGCGCACATT [X-structure 203-81-2/203-91-2]” as the substance, how does the cleavage rate ([3]; 3'-NH2 on first strand) read?
Answer: 0.28

Question: And the cleavage rate ([4]; 3'-NH2 on first strand)?
Answer: 0.07

Question: What about the cleavage rate ([5]; 3'-NH2 on first strand) of the same substance?
Answer: 0.52

Question: And the cleavage rate ([6]; 3'-NH2 on first strand)?
Answer: 0.1

Question: And the cleavage rate ([7]; 3'-NH2 on first strand)?
Answer: 59

Question: What about the cleavage rate ([8]; 3'-NH2 on first strand) of the same substance?
Answer: 1.37

Question: “TTTTTCACGGCAGTTGGTGCGCCTCGGAACGAGGCGCACA / TTTTCAACTGCCGTGA [INVADER substrate 594-12-1/203-91-1]” was tested. Which cleavage rate [3] did it give?
Answer: 0.05

Question: What about the cleavage rate [4] of the same substance?
Answer: 0.03

Question: And the cleavage rate [5]?
Answer: 0.56

Question: What about the cleavage rate [6] of the same substance?
Answer: 0.14

Question: What about the cleavage rate [7] of the same substance?
Answer: 1.2

Question: And the cleavage rate [8]?
Answer: 2.4

Question: What does the source list for duplex length 0 substrate?
Answer: activity [9]: 0 per min; activity [10]: 0 per min

Question: Which results are given for duplex length 3 substrate?
Answer: activity [9]: 1 per min; activity [10]: 29 per min

Question: With duplex length 4 substrate as the substance, how does the activity [9] read?
Answer: 10 per min

Question: What about the activity [10] of the same substance?
Answer: 57 per min

Question: With duplex length 6 substrate as the substance, how does the activity [9] read?
Answer: 44 per min

Question: What about the activity [10] of the same substance?
Answer: 51 per min

Question: With duplex length 8 substrate as the substance, how does the activity [9] read?
Answer: 45 per min

Question: What about the activity [10] of the same substance?
Answer: 46 per min

Question: Which results are given for factor Xa?
Answer: protease digestion of the unmodified nuclease [11]: Both nuclease proteins were cut with factor Xa within the 5′ nuclease domain; protease digestion of the unmodified nuclease (CLEAVASE BN nuclease): Both nuclease proteins were cut with factor Xa within the 5′ nuclease domain

Question: Which results are given for thrombin?
Answer: thrombin digestion, SDS-PAGE with Coomassie stain [12]: CLEAVASE BN/thrombin nuclease is efficiently cleaved by thrombin; protease digestion of the unmodified nuclease [11]: neither nuclease was digested with large amounts of thrombin; protease digestion of the unmodified nuclease (CLEAVASE BN nuclease): neither nuclease was digested with large amounts of thrombin
